Test results published in patent US20120093814A1, “Fusion Proteins Comprising Canine FC Portions” (BOEHRINGER INGELHEIM INTERNATIONAL GMBH, priority 2009, published 2012).
Positions of bridges follow the written chain, without caps; N, C: chain ends. No end group written: not given here.

Legend:
[1] = target: T1, canine NPRA (natriuretic peptide receptor A), full length, stably expressed on HEK293 cells (canine (dog), UniProt A0A8I3MHU3 32-1060); assay: cell-based or functional assay
T1 sequence: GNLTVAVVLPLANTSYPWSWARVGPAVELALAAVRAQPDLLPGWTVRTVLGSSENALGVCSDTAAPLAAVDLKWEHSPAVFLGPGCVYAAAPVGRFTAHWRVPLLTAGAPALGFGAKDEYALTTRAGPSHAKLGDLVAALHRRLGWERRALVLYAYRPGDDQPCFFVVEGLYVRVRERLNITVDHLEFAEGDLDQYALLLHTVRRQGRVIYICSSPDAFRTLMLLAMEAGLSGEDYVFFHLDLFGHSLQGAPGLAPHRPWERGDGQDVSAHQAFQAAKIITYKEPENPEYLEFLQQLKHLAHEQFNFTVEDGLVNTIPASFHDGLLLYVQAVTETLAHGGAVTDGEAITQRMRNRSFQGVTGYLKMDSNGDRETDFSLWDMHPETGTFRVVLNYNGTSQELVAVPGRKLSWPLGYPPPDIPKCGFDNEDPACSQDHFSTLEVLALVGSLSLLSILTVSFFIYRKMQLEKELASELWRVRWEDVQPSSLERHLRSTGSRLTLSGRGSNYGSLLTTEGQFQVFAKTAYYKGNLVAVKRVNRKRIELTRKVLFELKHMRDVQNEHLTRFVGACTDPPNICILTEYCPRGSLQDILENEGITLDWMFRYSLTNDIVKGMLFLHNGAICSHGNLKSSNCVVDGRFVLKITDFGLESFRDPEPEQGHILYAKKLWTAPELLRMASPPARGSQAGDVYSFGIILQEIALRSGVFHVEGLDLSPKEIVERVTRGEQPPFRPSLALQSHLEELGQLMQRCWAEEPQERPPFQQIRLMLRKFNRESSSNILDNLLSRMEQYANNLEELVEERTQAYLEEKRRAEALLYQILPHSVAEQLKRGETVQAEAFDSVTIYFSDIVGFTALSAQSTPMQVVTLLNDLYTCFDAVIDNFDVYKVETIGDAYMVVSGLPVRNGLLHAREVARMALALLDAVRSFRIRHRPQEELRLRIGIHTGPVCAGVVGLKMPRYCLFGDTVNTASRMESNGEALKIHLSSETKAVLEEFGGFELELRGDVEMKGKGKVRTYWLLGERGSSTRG

[2] = target: T1, canine NPRA (natriuretic peptide …); assay: cell-based or functional assay; remark: listed apart in the source
[3] = target: canine NPRA (natriuretic peptide receptor A), full length, stably expressed on HEK293 cells (canine (dog)); assay: cell-based or functional assay
[4] = Pharmacokinetics of ANP-caFc in conscious dogs following a single dose; format: in vivo, dog
Description: (§1) Dogs were administered a single IV dose (1 mg/kg or 17 nmol/kg) or SC dose (2.5 mg/kg or 42 nmol/kg) of ANP-caFc to assess PKPD over a period of 4 to 7 days. These doses were selected because they were similar to the dose-range employed to evaluate Cardeva (recombinant human serum albumin-BNP fusion protein) in dogs. […] The sensitivity of the ELISA used to reliably detect ANP-caFc in dog plasma was limited by having a minimum detection level in dog plasma of […]. In order to avoid plasma matrix effects, a minimum dilution of 1:50 was required when assaying beagle plasma. The linear range of the assay, in PBS, is […] to approximately 100 nM. In 2% beagle plasma the linear range of the curve is 1 nM to about 80 or 90 nM. FIG. 4 only provides an estimate of the estimated plasma levels and Table 2 presents the pharmacokinetics of ANP-caFc.

plasma cGMP = assay: Plasma cGMP levels in conscious dogs after IV and SC administration (preliminary PKPD); format: in vivo, dog; settings: single SC dose 2.5 mg/kg
Description: as §1
Plasma cGMP following SC dosing appeared to be elevated above baseline ≧48 hours post-dose (FIG. 5).

[5] = system: conscious telemeterized beagles; assay: Hemodynamic assessment in telemeterized conscious dogs (Study #1 and Study #2); format: in vivo, dog; settings: for effect on HR (figure legend) / effect on mean arterial blood pressure (figure legend): Days 1-4 post-dose
Description: The criteria for dose selection was that the dose could not decrease mean arterial blood pressure more than 5-10 mmHg below baseline, and that it should increase plasma cGMP concentration approximately 1.5×-2× above baseline. […] In study #1, a total of 5 dogs were dosed subcutaneously with vehicle, or ANP-caFc at 0.5, 1 and 2.5 mg/kg based on a modified Latin square design over a 4-week period. This dose-range was chosen because it was expected to overlap the targeted plasma cGMP elevation based on the single dose dog PK study. The dosing interval was 7 days. One animal was excluded from the final data analysis due to a failure of telemetry device during the study. ANP-caFc produced a dose-dependent increase in peak plasma levels of cGMP (3.7-, 3.5- and 6.6-fold—of vehicle day value FIG. 6), a dose-dependent peak reduction in mean arterial blood pressure (MAP; −13±5, −19±4, and −20±5 mmHg vs. vehicle—FIGS. 7A and 7B), and peak heart rate was increased (+30 ±10, +29 ±9, and +25 ±9 beats per minute—FIGS. 8A and 8B).
Since the MAP decreased more than 10 mmHg during the peak effect for all three doses, Study #2 was performed with lower doses (0.05 and 0.25 mg/kg) in the same 4 dogs using a similar study design. […] The 0.05 mg/kg dose of ANP-caFc had no effect of MAP (1.9±1.4 mmHg), HR (1.8±0.6 beats per minute), or plasma cGMP. (Urine samples were also collected for cGMP excretion measurements, however, samples were contaminated by drinking water and could not be used.)

[6] = single IV dose 1 mg/kg (17 nmol/kg)
[7] = single SC dose 2.5 mg/kg (42 nmol/kg)

## SLRRSSCFGGRMDRIGAQSGLGCNSFRY (disulfide 7-23 (inferred)) [canine ANP28]
[1]
  EC50 in the canine NPRA cGMP assay: ~1 nM
[2]
  cGMP EC50 (nM), cGMP induction on canine NPRA cells: 0.2 nM

B1: ANP28-20aa-CalgGB-Fc (recombinant canine ANP28 - (GGS)6GG linker - canine IgG-B Fc fusion protein) (Fc fusion)
chain: SLRRSSCFGGRMDRIGAQSGLGCNSFRYGGSGGSGGSGGSGGSGGSGGCPKCPAPEMLGGPSVFIFPPKPKDTLLIARTPEVTCVVVDLDPEDPEVQISWFVDGKQMQTAKTQPREEQFNGTYRVVSVLPIGHQDWLKGKQFTCKVNNKALPSPIERTISKARGQAHQPSVYVLPPSREELSKNTVSLTCLIKDFFPPDIDVEWQSNGQQEPESKYRTTPPQLDEDGSYFLYSKLSVDKSRWQRGDTFICAVMHEALHNHYTQESLSHSPGK
modifications: C-terminal Lysine residue missing in all lots produced (mass spectrometry); Fc glycosylated (G0, G1, G2)
[3]
  cGMP EC50 (nM), Dog NPRA; lot 8760-110.3: 3 nM
  cGMP EC50 (nM), Dog NPRA; lot 8760-137: 2.5 nM
  cGMP EC50 (nM), Dog NPRA; lot 8760-174: 5.4 nM
  cGMP EC50 (nM), Dog NPRA; lot 9081-51: 8.3 nM
  cGMP EC50 (nM), Dog NPRA; lot 9081-53: 9.4 nM

B2: ANP-caFc: canine ANP-Fc fusion protein dosed to dogs; Fc isotype not stated, nmol/kg doses fit the IgG-B fusion (protein)
chain: B1 chain
[4]; [6]
  AUC: 2.0 ± 0.46 µM·h
  MRT: 12.2 ± 1.9 h
  T½: 8.3 ± 2.0 h
  Vss: 0.107 ± 0.013 L/kg
[4]; [7]
  AUC: 6.1 ± 0.3 µM·h
  MRT: 41.6 ± 1.0 h
  T½: 15.4 ± 1.8 h
Plasma cGMP
  time plasma cGMP elevated above baseline post-dose: ≥ 48 h
[5]; Study #1, SC 0.5 mg/kg
  increase in peak plasma levels of cGMP, of vehicle day value: 3.7 fold
  peak heart rate increase: +30 ±10 beats per minute
  peak reduction in mean arterial blood pressure (MAP) vs. vehicle: −13±5 mmHg
[5]; Study #1, SC 1 mg/kg
  increase in peak plasma levels of cGMP, of vehicle day value: 3.5 fold
  peak heart rate increase: +29 ±9 beats per minute
  peak reduction in mean arterial blood pressure (MAP) vs. vehicle: −19±4 mmHg
[5]; Study #1, SC 2.5 mg/kg
  increase in peak plasma levels of cGMP, of vehicle day value: 6.6 fold
  peak heart rate increase: +25 ±9 beats per minute
  peak reduction in mean arterial blood pressure (MAP) vs. vehicle: −20±5 mmHg
[5]; Study #1, subcutaneous
  effect on HR (figure legend): dose-dependently increased
  effect on mean arterial blood pressure (figure legend): dose-dependently decreased
[5]; Study #2, SC 0.05 mg/kg
  change in HR: 1.8±0.6 beats per minute
  change in MAP: 1.9±1.4 mmHg
  effect on plasma cGMP: no effect
[5]; Study #2, SC 0.25 mg/kg
  change in MAP vs. vehicle: −6.6±1.6 mmHg
  effect on plasma cGMP: moderate increase
  increase in heart rate: 20±9 beats per minute
[5]; Study #2, subcutaneous
  effect on HR (figure legend): dose-dependently increased
  effect on mean arterial blood pressure (figure legend): dose-dependently decreased
